Data published in US20250066503A1, “CELL INJURY INDUCING THERAPEUTIC DRUG FOR USE IN CANCER THERAPY” (CHUGAI SEIYAKU KABUSHIKI KAISHA, priority 2016, published 2025).
Residue numbers refer to the chain shown, from its start.

B1: H0610-G1dh/none-Hi-Kn010G3/TR01L011-k0 (antibody, V domains shown)
VH: QVQLVQSGAEVKKPGASVKVSCKASGYTFTDYEMHWIRQPPGQGLEWIGAIDGKTPDTAYSQKFKGRVTLTADKSTSTAYMELSSLTSEDTAVYYCTRFYSYTYWGQGTLVTVSS
VL: DIVMTQSPLSLPVTPGEPASISCQASESLVHSNRNTYLHWYQQKPGQAPRLLIYKVSNRFRGVPDRFSGSGSGTDFTLKISRVEAEDVGVYYCGQGTQVPYTFGQGTKVEIE
notes: one-arm
B2: GCH025-G1dh/none-Hi-Kn010G3/L0000-k0 (antibody, V domains shown)
VH: B1 VH with K19T, Q43E, K54E
VL: DIVMTQSPLSLPVTPGEPASISCRSSQSLVHSNRNTYLHWYQQKPGQAPRLLIYKVSNRFSGVPDRFSGSGSGTDFTLKISRVEAEDVGVYYCGQGTQVPYTFGQGTKLEIKR
notes: one-arm
B3: GCH056-G1dh/none-Hi-Kn010G3/L0011-k0 (antibody, V domains shown)
VH: B1 VH with K19T, Q43E, K54E, K65E
VL: B2 VL with S28P
notes: one-arm
B4: H0610-G1dh/none-Hi-Kn010G3/TR01L015-k0 (antibody, V domains shown)
VH: B1 VH
VL: B1 VL with Q24R, A25S, E27Q, L29P, Q42L, A48S, R50Q, R61S, V109L, E112K
notes: one-arm
B5: GCH005-G1dh/none-Hi-Kn010G3/L0000-k0 (antibody, V domains shown)
VH: B1 VH with Y60E
VL: B2 VL
notes: one-arm
B6: GCH042-G1dh/none-Hi-Kn010G3/L0000-k0 (antibody, V domains shown)
VH: B1 VH with S88E
VL: B2 VL
notes: one-arm
B7: GCH056-G1dh/none-Hi-Kn010G3/L0000-k0 (antibody, V domains shown)
VH: B1 VH with K19T, Q43E, K54E, K65E
VL: B2 VL
notes: one-arm
B8: GCH032-G1dh/none-Hi-Kn010G3/L0000-k0 (antibody, V domains shown)
VH: B1 VH with Q62E
VL: B2 VL
notes: one-arm
B9: GCH054-G1dh/none-Hi-Kn010G3/L0222-k0 (antibody, V domains shown)
VH: B1 VH with K19T, Q43E, K54E, Q62E
VL: B2 VL with L29P, L38I, H39Q, G94Y
notes: one-arm
B10: GCH015-G1dh/none-Hi-Kn010G3/L0000-k0 (antibody, V domains shown)
VH: B1 VH with S61E, Q62E, K63S
VL: B2 VL
notes: one-arm
B11: GCH034-G1dh/none-Hi-Kn010G3/L0000-k0 (antibody, V domains shown)
VH: B1 VH with K65E
VL: B2 VL
notes: one-arm
B12: H0610-G1dh/none-Hi-Kn010G3/TR01L012-k0 (antibody, V domains shown)
VH: B1 VH
VL: B1 VL with Q24R, A25S, E27Q, Q42L, A48S, R50Q
notes: one-arm
B13: GCH035-G1dh/none-Hi-Kn010G3/L0000-k0 (antibody, V domains shown)
VH: B1 VH with T69E
VL: B2 VL
notes: one-arm
B14: GCH016-G1dh/none-Hi-Kn010G3/L0000-k0 (antibody, V domains shown)
VH: B1 VH with S61E, K65Q, G66D
VL: B2 VL
notes: one-arm
B15: GCH019-G1dh/none-Hi-Kn010G3/L0000-k0 (antibody, V domains shown)
VH: B1 VH with K19T, Q43E, S61E
VL: B2 VL
notes: one-arm
B16: GCH055-G1dh/none-Hi-Kn010G3/L0000-k0 (antibody, V domains shown)
VH: B1 VH with K19T, Q43E, K54E, Q62D
VL: B2 VL
notes: one-arm
B17: GCH025-G1dh/none-Hi-Kn010G3/L0204-k0 (antibody, V domains shown)
VH: B1 VH with K19T, Q43E, K54E
VL: B2 VL with L29P, S61R
notes: one-arm
B18: GCH053-G1dh/none-Hi-Kn010G3/L0000-k0 (antibody, V domains shown)
VH: B1 VH with K19T, Q43E, K54E, S61E
VL: B2 VL
notes: one-arm
B19: GCH054-G1dh/none-Hi-Kn010G3/L0212-k0 (antibody, V domains shown)
VH: B1 VH with K19T, Q43E, K54E, Q62E
VL: B2 VL with S25P, L29P, G94Y
notes: one-arm
B20: GCH054-G1dh/none-Hi-Kn010G3/L0203-k0 (antibody, V domains shown)
VH: B1 VH with K19T, Q43E, K54E, Q62E
VL: B2 VL with L29P, L38I
notes: one-arm
B21: GCH023-G1dh/none-Hi-Kn010G3/L0000-k0 (antibody, V domains shown)
VH: B1 VH with Q43E, K54E
VL: B2 VL
notes: one-arm
B22: GCH022-G1dh/none-Hi-Kn010G3/L0000-k0 (antibody, V domains shown)
VH: B1 VH with K19T, K54E
VL: B2 VL
notes: one-arm
B23: GCH043-G1dh/none-Hi-Kn010G3/L0000-k0 (antibody, V domains shown)
VH: B1 VH with T91E
VL: B2 VL
notes: one-arm
B24: H0610-G1dh/none-Hi-Kn010G3/TR01L018-k0 (antibody, V domains shown)
VH: B1 VH
VL: B1 VL with L29P, Q42L, A48S, R50Q, R61S, V109L, E112K
notes: one-arm
B25: H0610-G1dh/none-Hi-Kn010G3/TR01L020-k0 (antibody, V domains shown)
VH: B1 VH
VL: B1 VL with L29P, L38I, H39Q, Q42L, A48S, R50Q, R61S, G94Y, V109L, E112K
notes: one-arm
B26: GCH040-G1dh/none-Hi-Kn010G3/L0000-k0 (antibody, V domains shown)
VH: B1 VH with S85E
VL: B2 VL
notes: one-arm
B27: H0610-G1dh/none-Hi-Kn010G3/TR01L016-k0 (antibody, V domains shown)
VH: B1 VH
VL: DIVMTQSPLSLPVTPGEPASISCRSSQSPVHSNRNTYLHWYLQKPGQSPQLLIYKVSNRFSGVPDRFSGSGSGTDFTLKISRVEAEDVGVYYCYQGTQVPYTFGQGTKLEIK
notes: one-arm
B28: GCH045-G1dh/none-Hi-Kn010G3/L0000-k0 (antibody, V domains shown)
VH: B1 VH with V93E
VL: B2 VL
notes: one-arm
B29: GCH054-G1dh/none-Hi-Kn010G3/L0201-k0 (antibody, V domains shown)
VH: B1 VH with K19T, Q43E, K54E, Q62E
VL: B2 VL with S28P, L29P
notes: one-arm
B30: GCH056-G1dh/none-Hi-Kn010G3/L0201-k0 (antibody, V domains shown)
VH: B1 VH with K19T, Q43E, K54E, K65E
VL: B2 VL with S28P, L29P
notes: one-arm
B31: GCH055-G1dh/none-Hi-Kn010G3/L0222-k0 (antibody, V domains shown)
VH: B1 VH with K19T, Q43E, K54E, Q62D
VL: B2 VL with L29P, L38I, H39Q, G94Y
notes: one-arm
B32: GCH026-G1dh/none-Hi-Kn010G3/L0000-k0 (antibody, V domains shown)
VH: B1 VH with K54E, Q62E, K63S
VL: B2 VL
notes: one-arm
B33: GCH010-G1dh/none-Hi-Kn010G3/L0000-k0 (antibody, V domains shown)
VH: B1 VH with K54D, S61E
VL: B2 VL
notes: one-arm
B34: GCH012-G1dh/none-Hi-Kn010G3/L0000-k0 (antibody, V domains shown)
VH: B1 VH with Y60E, S61E
VL: B2 VL
notes: one-arm
B35: GCH055-G1dh/none-Hi-Kn010G3/L0212-k0 (antibody, V domains shown)
VH: B1 VH with K19T, Q43E, K54E, Q62D
VL: B2 VL with S25P, L29P, G94Y
notes: one-arm
B36: GCH008-G1dh/none-Hi-Kn010G3/L0000-k0 (antibody, V domains shown)
VH: B1 VH with K54E
VL: B2 VL
notes: one-arm
B37: GCH057-G1dh/none-Hi-Kn010G3/L0000-k0 (antibody, V domains shown)
VH: B1 VH with K19T, Q43E, K54E, Q62E, K65E
VL: B2 VL
notes: one-arm
B38: GCH014-G1dh/none-Hi-Kn010G3/L0000-k0 (antibody, V domains shown)
VH: B1 VH with Q43E, S61E
VL: B2 VL
notes: one-arm
B39: GCH007-G1dh/none-Hi-Kn010G3/L0000-k0 (antibody, V domains shown)
VH: B1 VH with Q62D
VL: B2 VL
notes: one-arm
B40: GCH027-G1dh/none-Hi-Kn010G3/L0000-k0 (antibody, V domains shown)
VH: B1 VH with T28E
VL: B2 VL
notes: one-arm
B41: GCH029-G1dh/none-Hi-Kn010G3/L0000-k0 (antibody, V domains shown)
VH: B1 VH with T30E
VL: B2 VL
notes: one-arm
B42: H0610-G1dh/none-Hi-Kn010G3/TR01L019-k0 (antibody, V domains shown)
VH: B1 VH
VL: B27 VL with R24Q, S25A, Q27E
notes: one-arm
B43: GCH013-G1dh/none-Hi-Kn010G3/L0000-k0 (antibody, V domains shown)
VH: B1 VH with K19T, S61E
VL: B2 VL
notes: one-arm
B44: H0610-G1dh/none-Hi-Kn010G3/TR01L017-k0 (antibody, V domains shown)
VH: B1 VH
VL: B27 VL with L38I, H39Q
notes: one-arm
B45: GCH003-G1dh/none-Hi-Kn010G3/L0000-k0 (antibody, V domains shown)
VH: B1 VH with K54D
VL: B2 VL
notes: one-arm
B46: GCH006-G1dh/none-Hi-Kn010G3/L0000-k0 (antibody, V domains shown)
VH: B1 VH with S61E
VL: B2 VL
notes: one-arm
B47: GCH054-G1dh/none-Hi-Kn010G3/L0000-k0 (antibody, V domains shown)
VH: B1 VH with K19T, Q43E, K54E, Q62E
VL: B2 VL
notes: one-arm
B48: GCH039-G1dh/none-Hi-Kn010G3/L0000-k0 (antibody, V domains shown)
VH: B1 VH with S84E
VL: B2 VL
notes: one-arm

target: T1, human GPC3 (human, UniProt P51654 25-563); assay: SPR
T1 construct: range 25-563; soluble analyte; also called soluble human GPC3; glypican 3
T1 sequence (P51654 25-563 limits assumed): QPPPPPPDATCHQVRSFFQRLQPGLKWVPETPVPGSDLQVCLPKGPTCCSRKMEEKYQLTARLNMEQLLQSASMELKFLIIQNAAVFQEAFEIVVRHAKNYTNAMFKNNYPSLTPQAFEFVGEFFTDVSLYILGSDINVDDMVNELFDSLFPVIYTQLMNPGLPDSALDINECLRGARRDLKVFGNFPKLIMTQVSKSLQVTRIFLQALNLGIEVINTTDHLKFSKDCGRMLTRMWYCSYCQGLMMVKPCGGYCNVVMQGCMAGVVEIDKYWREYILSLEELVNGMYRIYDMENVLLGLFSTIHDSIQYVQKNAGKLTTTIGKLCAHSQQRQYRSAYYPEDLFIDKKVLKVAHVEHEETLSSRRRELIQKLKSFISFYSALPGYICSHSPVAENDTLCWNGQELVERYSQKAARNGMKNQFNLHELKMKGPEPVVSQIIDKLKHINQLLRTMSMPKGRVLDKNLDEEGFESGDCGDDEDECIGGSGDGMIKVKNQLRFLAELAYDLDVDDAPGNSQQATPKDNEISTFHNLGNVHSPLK

| Kd [nM] | Binder |
| --- | --- |
| 4.02 | B1 |
| 5.05 | B2 |
| 4.31 | B3 |
| 2.16 | B4 |
| 5.32 | B5 |
| 4.89 | B6 |
| 5.03 | B7 |
| 5.74 | B8 |
| 0.0315 | B9 |
| 4.14 | B10 |
| 5.09 | B11 |
| 4.25 | B12 |
| 4.94 | B13 |
| 4.59 | B14 |
| 4.36 | B15 |
| 5.6 | B16 |
| 0.67 | B17 |
| 4.05 | B18 |
| 0.517 | B19 |
| 2.48 | B20 |
| 4.94 | B21 |
| 4.92 | B22 |
| 3.74 | B23 |
| 2.17 | B24 |

| Kd [nM] | Binder |
| --- | --- |
| 0.0224 | B25 |
| 4.8 | B26 |
| 1.08 | B27 |
| 4.63 | B28 |
| 1.08 | B29 |
| 1.16 | B30 |
| 0.0039 | B31 |
| 5.17 | B32 |
| 4.12 | B33 |
| 5.4 | B34 |
| 0.614 | B35 |
| 5.55 | B36 |
| 5.61 | B37 |
| 4.2 | B38 |
| 4.93 | B39 |
| 3.83 | B40 |
| 5.01 | B41 |
| 1.15 | B42 |
| 4.44 | B43 |
| 0.00827 | B44 |
| 5.2 | B45 |
| 4.06 | B46 |
| 5.3 | B47 |
| 4.95 | B48 |
